Target: the molecule itself
Assay: SEC + other: mass photometry; recombinant CHIP run on size-exclusion chromatography, fractions analysed by mass photometry at 30 nM in 20 mM Hepes pH 8, 200 mM NaCl, 1 mM DTT

B1: CHIP A52G point mutant, recombinant (enzyme, human, UniProt Q9UNE7 1-303, looked up)
chain: MKGKEEKEGGARLGAGGGSPEKSPSAQELKEQGNRLFVGRKYPEAAACYGRGITRNPLVAVYYTNRALCYLKMQQHEQALADCRRALELDGQSVKAHFFLGQCQLEMESYDEAIANLQRAYSLAKEQRLNFGDDIPSALRIAKKKRWNSIEERRIHQESELHSYLSRLIAAERERELEECQRNHEGDEDDSHVRAQQACIEAKHDKYMADMDELFSQVDEKRKKRDIPDYLCGKISFELMREPCITPSGITYDRKDIEEHLQRVGHFDPVTRSPLTQEQLIPNLAMKEVIDAFISENGWVEDY
notes: CHIP (STUB1 product) with the patient's de novo A52G mutation (c.155C > G), introduced by QuikChange into the pGEX6p-1 construct; Mutation found in a patient with SCA48; also called A52G mutant; source: E. coli, purified
  binding result: binds

Source: paper PMC9097460, “The molecular basis of spinocerebellar ataxia type 48 caused by a de novo mutation in the ubiquitin ligase CHIP” (The Journal of Biological Chemistry, 2022)
